US20210024646A1 (FUDAN UNIVERSITY, published 2021)
Where a chain is given by its changes, count along the chain named.

T1: CD73 on the surface of human tumor cells (human, UniProt P21589 27-549)
T1 construct: whole, on cells; One entry for endogenous CD73 on all cell lines; the cell line is named under assay or readout; also called CD73 receptors on the surface of tumor cells; tumor cell CD73
T1 sequence (looked up): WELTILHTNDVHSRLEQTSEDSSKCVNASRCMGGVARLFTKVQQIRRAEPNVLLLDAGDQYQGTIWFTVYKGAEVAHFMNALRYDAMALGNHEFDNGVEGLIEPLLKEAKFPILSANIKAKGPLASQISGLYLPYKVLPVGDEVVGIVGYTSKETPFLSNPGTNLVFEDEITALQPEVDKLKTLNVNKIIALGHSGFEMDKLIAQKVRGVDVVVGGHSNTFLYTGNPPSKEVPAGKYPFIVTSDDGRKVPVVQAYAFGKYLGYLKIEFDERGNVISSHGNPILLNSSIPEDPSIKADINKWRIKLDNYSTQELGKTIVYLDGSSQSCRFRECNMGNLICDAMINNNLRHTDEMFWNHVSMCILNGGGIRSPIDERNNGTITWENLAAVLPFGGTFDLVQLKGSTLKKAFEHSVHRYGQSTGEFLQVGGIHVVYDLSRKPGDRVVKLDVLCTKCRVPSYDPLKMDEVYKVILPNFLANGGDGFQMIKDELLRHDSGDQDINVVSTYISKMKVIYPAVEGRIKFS

T2: extracellular domain of human CD73 protein (CD73-ECD), C-terminus polyhistidine-tagged (human, UniProt P21589 27-547)
T2 construct: also called Human CD73-ECD; human recombinant CD73 enzyme (CD73 extracellular domain)
T2 sequence: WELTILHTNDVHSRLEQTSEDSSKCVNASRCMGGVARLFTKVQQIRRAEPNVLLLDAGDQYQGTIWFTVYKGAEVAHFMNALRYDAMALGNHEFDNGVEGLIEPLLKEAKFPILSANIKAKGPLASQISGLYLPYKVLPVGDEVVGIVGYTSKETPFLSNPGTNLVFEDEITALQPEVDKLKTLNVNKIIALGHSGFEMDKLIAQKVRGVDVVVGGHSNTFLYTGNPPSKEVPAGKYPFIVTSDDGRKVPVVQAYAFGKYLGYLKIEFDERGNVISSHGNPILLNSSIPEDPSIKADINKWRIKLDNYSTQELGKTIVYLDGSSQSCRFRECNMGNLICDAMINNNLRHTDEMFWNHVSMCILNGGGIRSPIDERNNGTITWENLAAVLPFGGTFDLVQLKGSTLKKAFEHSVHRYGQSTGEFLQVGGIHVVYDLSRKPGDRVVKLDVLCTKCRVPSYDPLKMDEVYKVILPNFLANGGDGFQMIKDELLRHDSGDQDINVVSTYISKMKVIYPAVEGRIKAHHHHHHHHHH

B1: mAb001 (antibody, IgG1, V domains shown)
VH: QVQLQQSGPELVKPGASVRISCKTSGYTFTNYYIYWVKQRPGQGLEWIGWIYPGNLNIKYNEKFKGKSTLTADKSSSTAFMQLSSLTSEDSAVYFCARDDNYAWFAYWGQGTLVTVSS
VL: DIVMTQSHKFMSTSIGDRVSITCKASQDVSTAVAWYQQKPGQSPKLLIYWTNTRHTGVPDRFTGNTSGTEHTLTISSVQAEDLALYYCQQHYSTPFTFGSGTTLEIK
B2: Hu001c-14 (antibody, V domains shown)
VH: QVQLVQSGAEVKKPGASVKVSCKTSGYTFTNYYIYWVRQAPGQRLEWMGWIYPGNLNIKYNEKFKGRVTITADTSASTAYMELSSLRSEDTAVYYCARDDNYAWFAYWGQGTLVTVSS
VL: DIQMTQSPSSLSASVGDRVTITCKASQDVSTAVAWYQQKPGKAPKLLIYWTNTRHTGVPSRFSGSGSGTDHTLTISSLQPEDFATYYCQQHYSTPFTFGQGTKLEIK
notes: Humanized
B3: Hu001c-15 (antibody, V domains shown)
VH: B2 VH
VL: B2 VL with A43S
notes: Humanized
B4: mAb004 (antibody, IgG2b, V domains shown)
VH: EVQLQQSGPELVKPGASVKIPCKASGYTFTDYNMDWVKQSHGKSLEWIGDINPNNGGSVYNQKFKGKATLTVDKSSSTAYMELRSLTSEDTAVYYCGRITGTGYWSFDVWGTGTTVTVSP
VL: DIQMTQSPASLSVSVGETVTITCRASENIYSNLAWYQQKQGKSPQLLVYGATNLAEGVPSRFSGSGLGTQYSLKISSLQSEDFGSYYCQHFWGIPWTFGGGTKLEIK
B5: mAb002 (antibody, IgG1, V domains shown)
VH: QVQLQQPGAELVKPGASVRLSCKASGYTLTSYWMHWVKKRPGQGLEWIGEINPSNGRSNYNEKFKSKATLTVDRSSSTVYMQLGSLTSEDSAVYYCARRGVSGNYFDYWGQGTTLTVSS
VL: DIKMTQSPSSMYASLGERVTMTCKASQDINTYLSWFQQKPGKSPKTLIYRSNILVDGVPSRFSGSRSGQDYYLTITSLEYEDMGIYYCLQYDEFPYTFGGGTKLELK

What was measured:
[1] = biological target: T1, CD73 on the surface of human tumor cells; experiment: FACS, purified antibody serial dilution, MDA-MB-231 cells
[2] = biological target: T2, extracellular domain of human CD73 …; experiment: ELISA, coated CD73-ECD
[3] = biological target: T1, CD73 on the surface of human tumor cells; experiment: confocal microscopy, 5 µg/mL antibody, MDA-MB-231 cells
Method: The antibodies (5 μg/mL) were incubated with the cells at 4° C. for 1 hour, or at 37° C. for 4 hours, and then placed under a laser scanning confocal microscope to observe the results.
MDA-MB-231 cells of 50% density were spread in a laser confocal culture dish, cultured at 37° C. for 16 hours, and then 5 μg/mL CD73 antibody was added. The cells were incubated at 37° C. for 4 hours or 4° C. for 1 hour, washed three times with PBS to remove the antibodies unbound to the cells, and immobilized with 4% paraformaldehyde at room temperature for 30 minutes. The cells were washed three times with PBS and permeabilized with 0.4% Triton X-100 for 10 minutes. The cells were washed three times with PBS, the Lamp-2 (rabbit anti-human) antibody was added and incubated at 37° C. for 1 hour to mark the position of cell lysosome. The unbound antibodies were washed off with PBS, and R-PE-labeled goat anti-human and Alexa Fluor 488-labeled donkey anti-rabbit secondary antibodies were added and incubated at 37° C. for 30 min.

Row | Binder | EC50 [1] | binding result [2] | binding result [3]
1 | B1 | 1.24 nM |  | 
2 | B2 |  | binds | binds
3 | B3 |  | binds | binds
4 | B4 | 4.69 nM |  | 
5 | B5 | 0.65 nM |  | 
